In data set [1] the target is T1, MYB101 MYB domain (Arabidopsis thaliana, UniProt O80883 1-133).
T1 sequence: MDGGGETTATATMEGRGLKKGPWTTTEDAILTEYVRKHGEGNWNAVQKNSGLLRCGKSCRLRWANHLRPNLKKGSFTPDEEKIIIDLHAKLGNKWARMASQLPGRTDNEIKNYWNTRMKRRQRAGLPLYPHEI
The data set is described as follows: EMSA; 10 mM Tris-Cl, 50 mM KCl, 1 mM DTT, pH 7.5, room temperature 20 min; 20 fmol probe, 200 ng protein, 50 ng poly(dI-dC) in 20 ul; 6% native PAGE, 0.5x TBE. Particulars: protein: recombinant; tags: 6xHis (pET-30a(+)); annealed complementary oligonucleotides. A general note: Mobility shift assays separate free from complexed probe on a gel.

Data set [2] has as its target T1, MYB101 MYB domain. The data set is described as follows: competition; 500x molar excess vs labeled DG2WT; 10 mM Tris-Cl, 50 mM KCl, 1 mM DTT, pH 7.5, room temperature 20 min; 20 fmol probe, 200 ng protein, 50 ng poly(dI-dC) in 20 ul; 6% native PAGE, 0.5x TBE. Particulars: protein: recombinant; tags: 6xHis (pET-30a(+)); annealed complementary oligonucleotides.

The values that follow come from publication PMC3836714, “MYB97, MYB101 and MYB120 Function as Male Factors That Control Pollen Tube-Synergid Interaction in Arabidopsis thaliana Fertilization”.

B1: DG3WT (dsDNA)
DNA 1: ACGTCGGAAGGATTAACAAAAAAAAAGCCGTGGCGTT
DNA 2: AACGCCACGGCTTTTTTTTTGTTAATCCTTCCGACGT
Turning to B1, the binding result in the data set with MYB101 MYB domain [1] was “binds”.

B2: mDG2WT (dsDNA)
DNA 1: GACACAAATCAACAGCTCGAGGACAAAATT
DNA 2: AATTTTGTCCTCGAGCTGTTGATTTGTGTC
In the case of B2, in the data set with MYB101 MYB domain [2], the binding result is recorded as “no binding”.

B3: DG2WT (dsDNA)
DNA 1: GACACAAATCAACAGTAACAAAACAAAATT
DNA 2: AATTTTGTTTTGTTACTGTTGATTTGTGTC
Take B3: the binding result with MYB101 MYB domain [1] is “binds”.

B4: DG1WT (dsDNA)
DNA 1: TTATGCATATAACAAAAATAATTTCAATGC
DNA 2: GCATTGAAATTATTTTTGTTATATGCATAA
Take B4: in the data set with MYB101 MYB domain [1], the binding result was “binds”.
